Data from patent US20190321466A1 (CTTQ AKESO SHANGHAI BIOMED TECH, published 2019).

Molecular target: T1, PD1 antigen obtained by cleaving PD1-mFc with TEV protease, labeled with biotin (UniProt Q15116 25-170, limits assumed, labeled with biotin (site not stated))
T1 construct: also called antigen PD1
Experiment: Fortebio Octet, biotin-PD1 on SA sensor, antibody in solution
Text: 2. […] The dissociation of antigen and antibody were also in PBST.

T1 sequence (Q15116 25-170 limits assumed): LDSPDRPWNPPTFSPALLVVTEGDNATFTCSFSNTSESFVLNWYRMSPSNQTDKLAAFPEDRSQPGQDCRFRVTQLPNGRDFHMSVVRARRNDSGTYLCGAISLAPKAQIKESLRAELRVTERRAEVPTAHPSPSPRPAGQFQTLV

Kd: 0.0181 nM
koff: 6.12e-06 s⁻¹
kon: 338000 M⁻¹ s⁻¹
B1: monoclonal antibody 14C12 (secreted by hybridoma cell line LT003) (antibody, V domains shown)
VH: EVKLVESGGGLVKPGGSLKLSCAASGFAFSSYDMSWVRQTPEKRLEWVATISGGGRYTYYPDSVKGRFTISRDNARNTLYLQMSSLRSEDTALYYCANRYGEAWFAYWGQGTLVTVSA
VL: DIKMTQSPSSMYASLGERVTFTCKASQDINTYLSWFQQKPGKSPKTLIYRANRLVDGVPSRFSGSGSGQDYSLTISSLEYEDMGIYYCLQYDEFPLTFGAGTKLEL
notes: Mouse antibody purified from hybridoma supernatant; also called PD1-14C12
